Data published in EP2986720B1, “URICASE MUTANTS” (Council of Scientific & Industrial Research, priority 2013, dated 2014).

Columns and labels:
Assay in all cases: Enzyme kinetic study of uricase (4-AAP/phenol/HRP colour assay, 505 nm)
[1] = biological target: T1, Kluyveromyces lactis uricase KlUOX (wild type) (SEQ ID NO.1) (Kluyveromyces lactis, UniProt Q6CNP7); format: biochemical; details: substrate uric acid; pH 7.0, 35°C; Table 5
T1 sequence (Q6CNP7 1-308): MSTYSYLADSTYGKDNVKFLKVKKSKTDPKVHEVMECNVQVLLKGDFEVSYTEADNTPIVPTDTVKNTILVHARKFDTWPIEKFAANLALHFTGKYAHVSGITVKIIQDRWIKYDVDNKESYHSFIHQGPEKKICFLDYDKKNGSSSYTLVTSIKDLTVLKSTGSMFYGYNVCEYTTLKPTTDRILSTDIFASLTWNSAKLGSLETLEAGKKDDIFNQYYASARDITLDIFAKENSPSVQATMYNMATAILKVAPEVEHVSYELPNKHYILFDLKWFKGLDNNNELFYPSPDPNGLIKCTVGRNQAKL
Experimental: (§1) Enzymatic assay of uricase: Substrate mixture contains • a. 2.2 ml of 2 mM Uric acid • b. 0.15 ml of 60 mM 4-Aminoantipyrine (4-AAP) • c. 0.15 ml of 1.5% Phenol • d. 0.15 ml of 20 U/ml Horseradish peroxidase (HRP) • e. 0.1 M respective buffer to make up to 3 ml • a. Uricase added to the above mixture and incubated at 25°C for 20 min. The colour is measured at 505 nm (Chen, Wang et al. 2008). • b. The reaction mix was set for 300 µl rather than 3 ml for convenient measuring in BiotekPowerwave X Elisa plate reader. The amounts of the solutions added in the assay mix were calculated accordingly for 300 µl.
(§2) The kinetics of the uricases was studied to evaluate the efficiency of the enzymes. The kinetic parameters of the uricases of all the species were determined at their respective optimum pH and optimum temperatures. The substrate (uric acid) was added in increasing concentrations ranging from 10 to 600 µM (10, 20, 40, 80, 100, 200, 300, 400, 500, and 600) in triplicates. The assay reagents for the kinetic studies were added in 96 well plates in triplicates in the buffer of pH 7.0 and incubated at 35°C. Equal amounts of enzyme were added and immediately readings were taken at 505 nm. Around 30 readings were taken at the interval of 1min. The readings at a particular time point were taken for further steady state kinetic study of uricases. The KM and Vmax values were determined from Michaelis-Menten saturation curve by the non-linear curve fit (ORIGIN 7.5). kcat and kcat/KM values were also calculated (table 5). Table 5: Kinetic properties of the uricases of this invention

[2] = biological target: T2, Kluyveromyces lactis uricase variant KI F167W, Mutant 2 (SEQ ID NO.3) (Kluyveromyces lactis, UniProt Q6CNP7, F167W); format: biochemical; details: substrate uric acid; pH 7.0, 35°C; Table 5
T2 sequence (Q6CNP7 1-308 F167W): T1 sequence (Q6CNP7 1-308)
Experimental: as §1, §2

[3] = biological target: T3, Kluyveromyces lactis uricase variant KI T62S, Mutant 1 (SEQ ID NO.2) (Kluyveromyces lactis, UniProt Q6CNP7, T62S); format: biochemical; details: substrate uric acid; pH 7.0, 35°C; Table 5
T3 sequence (Q6CNP7 1-308 T62S): T1 sequence (Q6CNP7 1-308)
Experimental: as §1, §2

[4] = test system: O=c1[nH]c(=O)c2[nH]c(=O)[nH]c2[nH]1; format: biochemical, Aspergillus flavus; details: other: substrate uric acid 10 to 600 µM; respective optimum pH and temperature; Table 1; pH 7.0
Experimental: as §1, §2

[5] = test system: O=c1[nH]c(=O)c2[nH]c(=O)[nH]c2[nH]1; format: biochemical, Kluyveromyces lactis; details: other: substrate uric acid 10 to 600 µM, pH 7.0, 35°C, Table 1
Experimental: as §1, §2

[6] = substrate: O=c1[nH]c(=O)c2[nH]c(=O)[nH]c2[nH]1; format: biochemical, A. globiformis; details: other: substrate uric acid 10 to 600 µM; respective optimum pH and temperature; Table 1; pH 7.0
Experimental: as §1, §2

[7] = substrate: O=c1[nH]c(=O)c2[nH]c(=O)[nH]c2[nH]1; format: biochemical, Candida utilis; details: other: substrate uric acid 10 to 600 µM; respective optimum pH and temperature; Table 1; pH 7.0
Experimental: as §1, §2

[8] = substrate: O=c1[nH]c(=O)c2[nH]c(=O)[nH]c2[nH]1; format: biochemical, Kluyveromyces lactis; details: other: substrate uric acid 10 to 600 µM, pH 7.0, 35°C, Table 1; remark: listed apart in the source
Experimental: as §1, §2

O=c1[nH]c(=O)c2[nH]c(=O)[nH]c2[nH]1 [uric acid] was tested, and the Kcat [1] was 12.16 min⁻¹, the Kcat [2] was 14.5 min⁻¹ and the Kcat [3] was 14.32 min⁻¹.

Work on A. flavus uricase (Aspergillus flavus) yielded a Km [4] of 96.2 µM, a kcat [4] of 4.3 min⁻¹ and a kcat/Km [4] of 0.044 µM⁻¹ min⁻¹.

“Kluyveromyces lactis uricase variant KI F167W, Mutant 2 (SEQ ID NO.3) (Kluyveromyces lactis NRRL Y-1140; F167W)” was tested, and the Km [5] was 28.07 µM, the kcat [5] was 14.5 min⁻¹ and the kcat/Km [5] was 0.516 µM⁻¹ min⁻¹.

“Kluyveromyces lactis uricase variant KI T62S, Mutant 1 (SEQ ID NO.2) (Kluyveromyces lactis NRRL Y-1140; T62S)” showed a Km [5] of 16.2 µM, a kcat [5] of 14.32 min⁻¹ and a kcat/Km [5] of 0.88 µM⁻¹ min⁻¹.

B1: A. globiformis uricase (Arthrobacter globiformis) (protein)
chain: MTATAETSTGTKVVLGQNQYGKAEVRLVKVTRNTARHEIQDLNVTSQLRGDFEAAHTAGDNAHVVATDTQKNTVYAFARDGFATTEEFLLRLGKHFTEGFDWVTGGRWAAQQFFWDRINDHDHAFSRNKSEVRTAVLEISGSEQAIVAGIEGLTVLKSTGSEFHGFPRDKYTTLQETTDRILATDVSARWRYNTVEVDFDAVYASVRGLLLKAFAETHSLALQQTMYEMGRAVIETHPEIDEIKMSLPNKHHFLVDLQPFGQDNPNEVFYAADRPYGLIEATIQREGSRADHPIWSNIAGFC
For B1, the Km [6] was 215 ± 2.16 µM, the kcat [6] was 0.87 min⁻¹ and the kcat/Km [6] was 0.004 µM⁻¹ min⁻¹.

B2: C. utilis uricase (Williopsis jadinii) (protein)
chain: MSTTLSSSTYGKDNVKFLKVKKDPQNPKKQEVMEATVTCLLEGGFDTSYTEADNSSIVPTDTVKNTILVLAKTTEIWPIERFAAKLATHFVEKYSHVSGVSVKIVQDRWVKYAVDGKPHDHSFIHEGGEKRITDLYYKRSGDYKLSSAIKDLTVLKSTGSMFYGYNKCDFTTLQPTTDRILSTDVDATWVWDNKKIGSVYDIAKAADKGIFDNVYNQAREITLTTFALENSPSVQATMFNMATQILEKACSVYSVSYALPNKHYFLIDLKWKGLENDNELFYPSPHPNGLIKCTVVRKEKTKL
B2 showed a Km [7] of 38.5 ± 5.16 µM, a kcat [7] of 12.16 min⁻¹ and a kcat/Km [7] of 0.315 µM⁻¹ min⁻¹.

B3: Kluyveromyces lactis uricase KlUOX (wild type) (SEQ ID NO.1) (Kluyveromyces lactis NRRL Y-1140) (protein)
chain: T1 sequence (Q6CNP7 1-308)
Molecule B3 has a Km [8] of 40.8 µM, a kcat [8] of 12.16 min⁻¹ and a kcat/Km [8] of 0.29 µM⁻¹ min⁻¹.
